We go through one molecule from patent US20240279288A1, “APPLICATION OF PLANT JAZ PROTEINS AND DERIVED POLYPEPTIDES IN PREVENTION AND TREATMENT OF HUMAN AND ANIMAL TUMORS” (ANYANG INSTITUTE OF SINO-COTTON INDUSTRY INNOVATION, priority 2021, published 2024).

The test system of one assay is MCF7 cells. Kind of assay: Apoptosis staining (Calcein AM/PI), fluorescence microscopy. To be noted: Calcein AM/PI staining vs PBS. Format: cell-based, human. On the procedure:
Method for apoptosis staining. Fluorescence microscopy detection: a. Seeding and culturing. Cells were seeded onto multiwell plates such as 96-well plates, cell culture dishes, or cell slides, and were treated in a certain way according to the experimental design. b. Washing (optionally). For adherent cells, the medium was removed, and cells were washed once with PBS. For suspended cells, cells were centrifuged at 250-1000×g at room temperature for 5 min, with the supernatant removed, followed by washing once with PBS. Phenol red or serum might interfere with the detection of this kit, therefore, a vacuum pump was preferred when removing the medium and PBS. PBS washing was not necessary in the case that the residual liquid can be sufficiently aspirated. c. Staining. An appropriate volume of Calcein AM/PI detection working solution (Beyotime Biotech. Inc., Calcein/PI Cell Viability and Cytotoxicity Detection Kit, Cat. No.: C2015) was added. Usually, 100 μl were added to each well for a 96-well plate, 250 μl for a 24-well plate, 500 μl for a 12-well plate, and 1 ml for a 6-well plate. Incubation was performed at 37° C. in dark for 30 min. […] After incubation, the staining effect was observed under a fluorescence microscope (with Calcein AM in green fluorescence, Ex/Em=494/517 nm; PI in red fluorescence, Ex/Em=535/617 nm). […]

Another assay relates to MCF7 breast cancer cells. Nature of the assay: Apoptosis detection (Annexin V-FITC/PI), MCF7. Format: cell-based, human. Particulars: 0.691 μM, 24 h, vs PBS. As for the experimental part: (§1) Apoptosis detection: cells were collected in 1.5 EP tubes and centrifuged at 300 g for 5 min, with the supernatant discarded, followed by collecting the cells, washing with PBS and resuspending. 1×10^5 resuspended cells were taken and centrifuged at 300 g for 5 min, with the supernatant discarded. The cells were washed with PBS, resuspended by adding 500 μl of diluted 1×Annexin V Binding Buffer working solution, and then a staining solution of 5 μL of Annexin V-FITC and 5 μL of propidium iodide (PI) were added and mixed well by vortex, followed by incubation at room temperature in the dark for 15-20 min, and detection on the instrument. Specifically, the Annexin V-FITC/PI fluorescent dual staining cell apoptosis detection kit (Wuhan Pricella Life Science & Technology Co., Ltd., Cat. No.: P-CA-201) was used.

The subject of assay [1] is normal breast epithelial cells MCF10A. Nature of the assay: Apoptosis detection (Annexin V-FITC/PI), MCF10A. Format: cell-based. To be noted: 0.691 μM, 24 h, vs PBS. On the procedure:
as §1

Assay [2] shares this test system. Kind of assay: Cell cycle detection (PI DNA content), MCF10A. Particulars: 0.691 μM, 24 h, vs PBS. Format: cell-based. On the procedure:
Cell cycle detection: cells were moderately digested by trypsin, and collected by centrifugation with supernatant removed, and then cells were washed with PBS, and collected by centrifugation at 1,500 rpm for 5 minutes to prepare a single-cell suspension (at a concentration of 1×10^6/ml). 1 ml of single-cell suspension was then taken and centrifuged with the supernatant discarded, and then 500 μl of 70% pre-cooled ethanol were added to fix the cells overnight at 4° C. The next day, cells were collected by centrifugation, resuspended with 1 ml of PBS and centrifuged, and then 100 μl of RNase A solution were added to the cell pellet, followed by placement in water bath at 37° C. for 30 min, and then 400 μl of PI staining solution was added and mixed well, followed by incubation at 4° C. in dark for 30 min and detection on the instrument to record under red fluorescence at the excitation wavelength of 488 nm. Specifically, a DNA content detection kit (cell cycle) (Solarbio, Cat. No.: CA1510) was used.

The next assay relates to GhNINJA. Nature of the assay: Luciferase experiment in tobacco leaves with GhNINJA. Particulars: no fluorescence on the control. In kind it is binding, cotton. The text has this: Method of the luciferase experiment: GhJAZ1 (corresponding encoding gene sequence set forth in SEQ ID No. 39) was subcloned into pCAMBIA-CLuc vector (Chen, H., et al. “Firefly Luciferase Complementation Imaging Assay for Protein-Protein Interactions in Plants.” Plant Physiology 146.2(2008):368-376.) between KpnI and SalI cleavage sites, and the transcription factors such as GhMYC2 (corresponding encoding gene sequence set forth in SEQ ID No. 72), GhNINJA (corresponding encoding gene sequence set forth in SEQ ID No. 74), and GhCOI1 (corresponding encoding gene sequence set forth in SEQ ID No. 80) were subcloned into pCAMBIA-NLuc (Chen, H., et al. “Firefly Luciferase Complementation Imaging Assay for Protein-Protein Interactions in Plants.” Plant Physiology 146.2(2008):368-376.) between KpnI and SalI cleavage sites, respectively. […] Luciferase substrates were applied at the infected leaves before taking images and placed in a dark room for at least 6 min to quench fluorescence, followed by observation on the Nightowl-II LB983 instrument, using IndigoBasic software under the luciferase-5 min setting conditions.
Chain of GhNINJA (as listed by the source): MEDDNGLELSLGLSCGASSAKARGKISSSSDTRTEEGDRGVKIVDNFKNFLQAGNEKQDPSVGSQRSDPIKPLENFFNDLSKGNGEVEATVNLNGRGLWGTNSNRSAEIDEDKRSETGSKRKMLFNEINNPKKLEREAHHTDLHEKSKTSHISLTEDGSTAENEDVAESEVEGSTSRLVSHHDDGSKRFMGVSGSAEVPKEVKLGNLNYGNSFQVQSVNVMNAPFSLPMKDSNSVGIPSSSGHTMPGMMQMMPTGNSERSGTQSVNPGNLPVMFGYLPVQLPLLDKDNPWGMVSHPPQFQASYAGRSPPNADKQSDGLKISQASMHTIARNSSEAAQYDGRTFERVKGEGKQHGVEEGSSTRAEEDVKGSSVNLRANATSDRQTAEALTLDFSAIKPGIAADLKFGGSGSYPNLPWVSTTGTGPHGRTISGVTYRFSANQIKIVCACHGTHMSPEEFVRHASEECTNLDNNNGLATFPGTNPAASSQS

A further assay deals with c-Myc (Homo sapiens, UniProt P01106). Kind of assay: CO-IP with c-Myc in HEK293 cells. Format: binding. On the set-up: host or cells: HEK293 cells (method paragraph: 293T). As for the experimental part: Steps of method of CO-IP experiment: Non-denaturing lysate was added to 293T cell culture plate (Pricella, Cat. No.: CL-0005), and the cells were completely lysed at 4° C. The lysate was centrifuged at 12,000 rpm for 10 min and the supernatant was collected. The corresponding antibody was added to the obtained non-denatured protein solution, which was incubated overnight at 4° C. Pierce™ protein A/G magnetic agarose (Thermo Fisher Scientific, Inc.) were washed with lysis buffer, followed by addition pre-treated beads to the cell lysate, and incubation at room temperature for 2 hours. The mixture was centrifuged at 4° C., 2,500 rpm for 5 min with supernatant removed, and the agarose beads were washed 5 times with 1 ml of lysis buffer. An appropriate amount of protein loading buffer was added to the pellet, and the sample was incubated in water bath at 100° C. for 10 min. The band of interest was detected by Western blotting.
Chain of c-Myc (P01106 whole entry): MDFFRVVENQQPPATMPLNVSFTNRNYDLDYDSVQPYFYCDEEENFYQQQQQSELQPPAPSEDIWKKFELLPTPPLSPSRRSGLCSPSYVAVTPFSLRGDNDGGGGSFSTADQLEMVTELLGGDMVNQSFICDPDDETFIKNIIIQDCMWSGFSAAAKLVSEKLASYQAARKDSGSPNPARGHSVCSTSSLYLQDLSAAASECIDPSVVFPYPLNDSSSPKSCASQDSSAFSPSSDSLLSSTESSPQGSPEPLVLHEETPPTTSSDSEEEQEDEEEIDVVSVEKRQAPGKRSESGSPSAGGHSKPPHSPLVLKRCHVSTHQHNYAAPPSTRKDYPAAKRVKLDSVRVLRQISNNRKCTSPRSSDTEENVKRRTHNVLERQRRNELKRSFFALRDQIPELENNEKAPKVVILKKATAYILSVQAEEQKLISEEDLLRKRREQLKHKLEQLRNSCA
Immunoprecipitation method (method of the experiment as Example 3) was used.

B1: GhJAZ1: cotton JAZ1 protein, gene number Gh_A05G0260, sequence SEQ ID No. 4; prokaryotically expressed with His tag, about 30 KD (protein)
chain: MSSCSESTAMKPARSPEKPSFAQTCNLLSQYLKEKGSFGDLSLGMTCNVEANGTPVVPPPTMNLFPLNDKSDDVCGRNGGNPKNLTSMDLFPQQAGLASKDDSPNKLEPQTAPMTIFYGGQVIVFNDFPANKAKEIMLLASNSSSQSNNSFNPIPFTSSIARSPIESSIGVPPTSKPVHPAQRAVPGDLPIARRASLHRFLEKRKDRITAKAPYQINNSAAAPSLSGDNKSWLGLAAQSP
modifications: His tag
notes: prokaryotically expressed with His tag, about 30 KD
Turning to B1, the “mortality rate of MCF7 cells” value in the assay with MCF7 cells was “significantly increased”. In the assay on MCF7 breast cancer cells, the “apoptosis rate of cancer cells (MCF7)” value is on record as “increased”. Besides, in assay [1], the “effect on apoptosis of normal cells (MCF10A)” value is “no significant effect”. In assay [2], the “G2-M phase block in MCF10A cells” value is recorded as “no G2-M phase block”. Besides, the “fluorescence with GhNINJA after applying luciferase substrate” value in the assay with GhNINJA is recorded as “stronger fluorescence”. In the assay with c-Myc, the “interaction with c-Myc” value is listed as “interacted”.
